Reference: patent US20190055291A1 (FONDATION THE ARK, published 2019)
Bridge positions count the residues as written; N and C are the ends. Square brackets hold non-standard residues; d marks the D form. R8 = C=CCCCCCC[C@@](C)(N)C(=O)O; S5 = C=CCCC[C@](C)(N)C(=O)O

How the values were obtained:
[1] = biological target: RSV fusion glycoprotein F (trimeric HR1 target) on recombinant GFP-expressing RSV virus (strain A2) (RSV (strain A2), UniProt P03420 26-574); test: cell-based or functional assay
[2] = biological target: RSV fusion glycoprotein F (trimeric HR1 target) on mCherry-expressing RSV virus (rHRSV-mCherry) (human RSV (rHRSV), strain ); test: cell-based or functional assay

Binder	EC50, block of RSV-GFP infection of A549 cells (flow cytometry) [1] [µM]	EC50 values [µM], rHRSV-mCherry inhibition assay in HEp-2 cells [2] [µM]
Ac-EKINQSL[R8]FIRKSD[S5]LLHNV-NH2 (staple 8-15) [4e]	> 90	–
FDASISQVNEKINQSLAFIRKSDELLHNVNAGKST [T118]	–	6.33
EQSLXFIRXSDXLLHXV (X504, X508, X511 and X515 are (S)-2-(4-pentenyl)alanine (two staples); N-terminus acetylated; C-terminus amidated) [3ac]	15.3	–
YDPLVFPSDEFDASISQVNEKINQSLAFIRKSDEL [T108]	20.9	–
